In paper PMC7242444, “Characterization of the zinc finger proteins ZMYM2 and ZMYM4 as novel B-MYB binding proteins” (Scientific Reports, 2020):

Biological target: T1, GFP-B-MYB (human, UniProt P10244 1-700)
T1 construct: B-MYB, human, full length, fused to eGFP; The truncated derivatives were cloned in peGFP-C1, 2 or 3, which would put GFP at the N-terminus; also called GFP/B-MYB fusion protein; peGFP-B-MYB; source: HEK293T, stably expressing (lentiviral) or transfected, in lysate
T1 sequence (looked up): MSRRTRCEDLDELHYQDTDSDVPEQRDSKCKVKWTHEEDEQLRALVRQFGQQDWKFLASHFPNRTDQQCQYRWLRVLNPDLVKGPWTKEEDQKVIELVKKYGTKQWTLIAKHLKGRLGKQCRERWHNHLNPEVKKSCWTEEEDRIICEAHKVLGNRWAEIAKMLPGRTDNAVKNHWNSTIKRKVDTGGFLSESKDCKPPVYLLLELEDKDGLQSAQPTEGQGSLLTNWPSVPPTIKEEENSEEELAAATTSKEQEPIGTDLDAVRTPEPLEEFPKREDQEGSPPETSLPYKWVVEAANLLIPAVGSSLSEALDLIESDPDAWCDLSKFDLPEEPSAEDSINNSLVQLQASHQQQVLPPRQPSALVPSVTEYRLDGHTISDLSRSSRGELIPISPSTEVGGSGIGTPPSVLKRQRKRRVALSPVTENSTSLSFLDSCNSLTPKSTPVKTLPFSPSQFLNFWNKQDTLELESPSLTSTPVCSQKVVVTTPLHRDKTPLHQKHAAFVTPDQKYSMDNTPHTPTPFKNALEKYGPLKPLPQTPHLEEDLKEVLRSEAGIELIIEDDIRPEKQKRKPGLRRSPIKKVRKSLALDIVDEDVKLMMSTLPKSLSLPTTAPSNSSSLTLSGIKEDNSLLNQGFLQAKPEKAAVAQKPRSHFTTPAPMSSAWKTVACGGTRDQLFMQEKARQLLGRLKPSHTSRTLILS
Assay: co-IP; GFP-trap beads, 3 h at 4 °C, extracts of HEK293T cells in ELB buffer (50 mM Tris/HCl pH 7.5, 120 mM NaCl, 0.2% NP-40) expressing the GFP fusion bait; Western blot of bound proteins; in Fig. 3 cells pre-incubated with 10 μM BrdU and irradiated or not with UV-C
Conditions: partners not purified

fold increase of binding after UV irradiation (against non-irradiated cells, densitometry): 4.1 fold
B1: zinc finger MYM-type protein 4 (ZMYM4), endogenous (natural protein, human (endogenous in HEK293T), UniProt Q5VZL5 1-1548, looked up)
chain: MAEREVESGPRKRFEQKSGAVFDEIVENCGGIMDTEMSEDIDHNLTPTLDSMSYGMPNQTGSENSLLDEDDYFLNSGDLAGIPVVGSDNEDEQDFSSKDNLVSSIHTDDSLEVERRVTQHESDNENEIQIQNKLKKDFPKQFDQVSVFKSIRKDFSLVRENSKETFSGKEKNRDLTYEREKRLDKPHKDLDSRLKSSFFDKAANQVEETLHTHLPQTPETNFRDSSYPFANKESIGSELGNSFASNIRIKEEPLDDEYDKAMAPQQGLLDKIKDEPDNAQEYSHGQQQKTQEGELKISAVFSVSGSPLAPQLTTGFQPSLASSGMNKMLPSVPATAVRVSCSGCKKILQKGQTAYQRKGSTQLFCSTLCLTGYTVPPARPPPPLTKKTCSSCSKDILNPKDVISAQFENTTTSKDFCSQSCLSTYELKKKPIVTINTNSISTKCSMCQKNAVIRHEVNYQNVVHKLCSDACFSKFRSANNLTMNCCENCGGYCYSGSGQCHMLQIEGQSKKFCSSSCITAYKQKSAKITPCALCKSLRSSAEMIENTNSLGKTELFCSVNCLSAYRVKMVTSAGVQVQCNSCKTSAIPQYHLAMSDGSIRNFCSYSCVVAFQNLFNKPTGMNSSVVPLSQGQVIVSIPTGSTVSAGGGSTSAVSPTSISSSAAAGLQRLAAQSQHVGFARSVVKLKCQHCNRLFATKPELLDYKGKMFQFCGKNCSDEYKKINNVMAMCEYCKIEKIVKETVRFSGADKSFCSEGCKLLYKHDLAKRWGNHCKMCSYCLQTSPKLVQNNLGGKVEEFCCEECMSKYTVLFYQMAKCDACKRQGKLSESLKWRGEMKHFCNLLCILMFCNQQSVCDPPSQNNAANISMVQAASAGPPSLRKDSTPVIANVVSLASAPAAQPTVNSNSVLQGAVPTVTAKIIGDASTQTDALKLPPSQPPRLLKNKALLCKPITQTKATSCKPHTQNKECQTEDTPSQPQIIVVPVPVPVFVPIPLHLYTQYAPVPFGIPVPMPVPMLIPSSMDSEDKVTESIEDIKEKLPTHPFEADLLEMAEMIAEDEEKKTLSQGESQTSEHELFLDTKIFEKDQGSTYSGDLESEAVSTPHSWEEELNHYALKSNAVQEADSELKQFSKGETEQDLEADFPSDSFDPLNKGQGIQARSRTRRRHRDGFPQPRRRGRKKSIVAVEPRSLIQGAFQGCSVSGMTLKYMYGVNAWKNWVQWKNAKEEQGDLKCGGVEQASSSPRSDPLGSTQDHALSQESSEPGCRVRSIKLKEDILSCTFAELSLGLCQFIQEVRRPNGEKYDPDSILYLCLGIQQYLFENGRIDNIFTEPYSRFMIELTKLLKIWEPTILPNGYMFSRIEEEHLWECKQLGAYSPIVLLNTLLFFNTKYFQLKNVTEHLKLSFAHVMRRTRTLKYSTKMTYLRFFPPLQKQESEPDKLTVGKRKRNEDDEVPVGVEMAENTDNPLRCPVRLYEFYLSKCSESVKQRNDVFYLQPERSCVPNSPMWYSTFPIDPGTLDTMLTRILMVREVHEELAKAKSEDSDVELSD
notes: ZMYM4 (zinc finger MYM-type protein 4), endogenous in HEK293T cells; In extracts made without NEM the protein is de-SUMOylated; also called endogenous ZMYM4; source: endogenous, HEK293T lysate
